Assay results as given in PMC11737846.

Molecular target: recombinant hemolysin co-regulated protein 1 variant B (rHcp1^(variant B)) of Burkholderia pseudomallei (Burkholderia pseudomallei (clinical isolate DR0089))
Assay: […]) at 10 mg/ml in PBS pH 7.2; […]

Substance: recombinant hemolysin co-regulated protein 1 variant B (rHcp1^(variant B)) of Burkholderia pseudomallei (natural protein)
- stoichiometry N: 6
